Experimental data published in publication PMC3060061.

Molecular target: PP2A core enzyme (A–C core dimer) (human) (UniProt P30153)
Assay: ITC

UniProt P30153, sequence (P30153 whole entry, chain 1 of 2): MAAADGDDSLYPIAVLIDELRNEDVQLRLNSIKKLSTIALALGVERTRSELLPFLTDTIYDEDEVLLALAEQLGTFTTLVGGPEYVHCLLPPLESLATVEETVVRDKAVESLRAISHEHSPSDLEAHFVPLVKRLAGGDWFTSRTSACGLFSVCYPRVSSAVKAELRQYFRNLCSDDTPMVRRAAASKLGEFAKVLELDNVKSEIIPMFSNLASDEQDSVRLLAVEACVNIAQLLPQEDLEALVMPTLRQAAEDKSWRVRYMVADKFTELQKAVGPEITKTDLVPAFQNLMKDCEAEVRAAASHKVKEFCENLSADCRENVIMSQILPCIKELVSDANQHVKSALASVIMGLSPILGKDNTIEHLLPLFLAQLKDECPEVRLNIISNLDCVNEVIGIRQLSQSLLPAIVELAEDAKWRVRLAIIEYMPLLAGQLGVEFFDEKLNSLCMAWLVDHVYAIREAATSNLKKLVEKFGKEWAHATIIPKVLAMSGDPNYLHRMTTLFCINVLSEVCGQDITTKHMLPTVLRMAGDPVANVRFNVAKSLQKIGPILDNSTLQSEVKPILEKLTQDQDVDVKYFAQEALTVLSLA
UniProt P30153, sequence (P67775 whole entry, chain 2 of 2, further chain): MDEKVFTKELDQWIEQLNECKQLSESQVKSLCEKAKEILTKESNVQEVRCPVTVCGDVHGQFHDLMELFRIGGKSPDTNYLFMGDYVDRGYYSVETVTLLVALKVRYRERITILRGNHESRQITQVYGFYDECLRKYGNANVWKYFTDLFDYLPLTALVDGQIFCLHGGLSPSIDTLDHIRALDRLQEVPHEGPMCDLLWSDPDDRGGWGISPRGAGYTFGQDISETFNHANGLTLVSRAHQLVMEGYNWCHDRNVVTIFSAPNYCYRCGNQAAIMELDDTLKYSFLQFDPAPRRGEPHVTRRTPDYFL

## LCMT-1 T29V (enzyme)
  fold increase of the binding affinity against wild type LCMT-1: 4 fold
